# Source: patent US20080220446A1 (published 2008)
# Ends that are not written are not given here.
# T1: recombinant human β2-glycoprotein I (insect cells) (human, UniProt P02749 20-345)
# T1 construct: also called recombinant β2GPI; rβ2GPI
# T1 sequence (looked up): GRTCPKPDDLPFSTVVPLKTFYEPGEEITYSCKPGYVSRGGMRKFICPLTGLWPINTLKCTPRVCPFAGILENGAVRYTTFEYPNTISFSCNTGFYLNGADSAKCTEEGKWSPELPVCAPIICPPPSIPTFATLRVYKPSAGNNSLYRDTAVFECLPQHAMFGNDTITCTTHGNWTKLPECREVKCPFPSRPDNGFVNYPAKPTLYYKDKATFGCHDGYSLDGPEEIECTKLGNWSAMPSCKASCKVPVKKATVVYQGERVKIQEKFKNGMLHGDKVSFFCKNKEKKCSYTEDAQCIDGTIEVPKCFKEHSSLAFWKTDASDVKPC
# T2: human coagulation factor VIII (FVIII) (Aafact) (human, UniProt P00451 20-2351)
# T2 chain 1: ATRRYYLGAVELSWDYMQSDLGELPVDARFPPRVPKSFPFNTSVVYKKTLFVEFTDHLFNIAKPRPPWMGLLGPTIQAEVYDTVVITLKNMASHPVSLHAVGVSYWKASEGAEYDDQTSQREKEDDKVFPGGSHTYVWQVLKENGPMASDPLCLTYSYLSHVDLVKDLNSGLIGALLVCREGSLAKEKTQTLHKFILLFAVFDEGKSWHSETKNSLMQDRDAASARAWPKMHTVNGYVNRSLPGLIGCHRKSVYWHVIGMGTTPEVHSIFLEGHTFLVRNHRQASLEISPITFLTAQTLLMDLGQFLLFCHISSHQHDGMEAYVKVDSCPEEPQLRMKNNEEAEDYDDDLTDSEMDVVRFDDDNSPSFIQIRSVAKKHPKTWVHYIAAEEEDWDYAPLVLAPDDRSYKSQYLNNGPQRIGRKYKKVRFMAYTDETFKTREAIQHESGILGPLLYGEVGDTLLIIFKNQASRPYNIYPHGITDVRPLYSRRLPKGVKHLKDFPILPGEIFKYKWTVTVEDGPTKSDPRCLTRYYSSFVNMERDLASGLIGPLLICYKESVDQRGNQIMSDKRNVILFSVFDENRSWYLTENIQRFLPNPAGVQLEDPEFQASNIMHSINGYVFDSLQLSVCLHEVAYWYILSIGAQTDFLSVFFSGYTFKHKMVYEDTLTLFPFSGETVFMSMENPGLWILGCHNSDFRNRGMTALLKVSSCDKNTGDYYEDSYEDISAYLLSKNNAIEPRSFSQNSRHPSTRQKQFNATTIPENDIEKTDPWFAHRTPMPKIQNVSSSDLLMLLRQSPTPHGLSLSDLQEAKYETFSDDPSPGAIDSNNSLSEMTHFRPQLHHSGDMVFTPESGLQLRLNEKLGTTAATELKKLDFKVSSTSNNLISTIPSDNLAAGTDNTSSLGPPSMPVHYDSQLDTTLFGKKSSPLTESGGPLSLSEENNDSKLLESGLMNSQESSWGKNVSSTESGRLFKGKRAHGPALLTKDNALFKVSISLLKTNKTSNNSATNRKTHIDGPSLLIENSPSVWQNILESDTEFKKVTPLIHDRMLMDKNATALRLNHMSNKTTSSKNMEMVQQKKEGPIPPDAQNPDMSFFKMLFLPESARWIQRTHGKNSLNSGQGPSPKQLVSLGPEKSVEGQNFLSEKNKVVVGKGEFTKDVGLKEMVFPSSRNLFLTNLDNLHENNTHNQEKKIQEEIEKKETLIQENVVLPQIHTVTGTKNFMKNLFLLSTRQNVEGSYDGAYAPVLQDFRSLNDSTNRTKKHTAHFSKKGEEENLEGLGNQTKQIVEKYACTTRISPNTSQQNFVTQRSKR
# T2 chain 2: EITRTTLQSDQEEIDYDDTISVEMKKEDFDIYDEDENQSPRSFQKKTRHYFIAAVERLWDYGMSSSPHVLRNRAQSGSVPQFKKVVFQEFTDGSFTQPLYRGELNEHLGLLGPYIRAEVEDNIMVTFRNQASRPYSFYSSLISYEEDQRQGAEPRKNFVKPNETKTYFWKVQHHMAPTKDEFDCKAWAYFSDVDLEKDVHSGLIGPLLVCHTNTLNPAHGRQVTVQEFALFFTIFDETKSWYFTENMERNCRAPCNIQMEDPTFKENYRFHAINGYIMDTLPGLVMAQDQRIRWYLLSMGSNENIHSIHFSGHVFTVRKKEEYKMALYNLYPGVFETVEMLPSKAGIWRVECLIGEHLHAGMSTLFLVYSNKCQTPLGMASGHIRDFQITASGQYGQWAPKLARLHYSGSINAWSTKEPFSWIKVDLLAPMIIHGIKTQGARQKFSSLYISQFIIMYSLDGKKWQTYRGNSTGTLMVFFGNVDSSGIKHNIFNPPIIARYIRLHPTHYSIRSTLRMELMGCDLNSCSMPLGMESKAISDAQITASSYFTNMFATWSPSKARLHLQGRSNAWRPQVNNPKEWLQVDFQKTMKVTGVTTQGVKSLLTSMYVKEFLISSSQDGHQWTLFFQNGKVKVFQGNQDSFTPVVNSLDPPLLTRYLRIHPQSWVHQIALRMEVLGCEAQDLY
# B1: chemically synthesized HGFA F domain (other)
# chain: EKCFDETRYEYLEGGDRWARVRQGHVEQCECFGGRTWCEGTK
# modifications: carboxy-terminal acetylated lysine residue
# notes: domain: F domain; Immobilized on the second Biacore chip
# B2: tissue-type plasminogen activator (tPA) (enzyme, human, UniProt P00750 36-562, looked up)
# chain: SYQVICRDEKTQMIYQQHQSWLRPVLRSNRVEYCWCNSGRAQCHSVPVKSCSEPRCFNGGTCQQALYFSDFVCQCPEGFAGKCCEIDTRATCYEDQGISYRGTWSTAESGAECTNWNSSALAQKPYSGRRPDAIRLGLGNHNYCRNPDRDSKPWCYVFKAGKYSSEFCSTPACSEGNSDCYFGNGSAYRGTHSLTESGASCLPWNSMILIGKVYTAQNPSAQALGLGKHNYCRNPDGDAKPWCHVLKNRRLTWEYCDVPSCSTCGLRQYSQPQFRIKGGLFADIASHPWQAAIFAKHRRSPGERFLCGGILISSCWILSAAHCFQERFPPHHLTVILGRTYRVVPGEEEQKFEVEKYIVHKEFDDDTYDNDIALLQLKSDSSRCAQESSVVRTVCLPPADLQLPDWTECELSGYGKHEALSPFYSERLKEAHVRLYPSSRCTSQHLLNRTVTDNMLCAGDTRSGGPQANLHDACQGDSGGPLVCLNDGRMTLVGIISWGLGCGQKDVPGVYTKVTNYLDWIRDNMRP
# notes: Full-length commercial tPA; also called Actilyse; Alteplase
# B3: chemically synthesized tPA F domain (other, human)
# chain: SYQVICRDEKTQMIYQQHQSWLRPVLRSNRVEYCWCNSGRAQCHSVPVKSK
# modifications: ends and bridges not checked; also: C-terminal Lys acetylated or biotinylated, not given here which
# notes: domain: F domain; Made by native chemical ligation; immobilized on the second Biacore chip
# Key:
# [1] = molecular target: T1, recombinant human β2-glycoprotein I …; assay: SPR (Biacore), HGFA F immobilized on CM5 chip
# Description: (§1) A standardized amine coupling procedure was used to couple proteins with F domains to a CM5 chip (Biacore AB, Uppsala, Sweden). First, the dextran surface of the chips was activated by a 35 μl injection with a 1:1 mixture of 0.1 M N-hydroxysuccinimide (NHS) and 0.4 M N-ethyl-N′-(dimethylaminopropyl)carbodiimide (EDC) at a flow rate of 5 μl min.⁻¹. Then, the proteins were covalently coupled to the activated dextran surface. Remaining activated groups in each of the four flow channels were blocked by injection of 35 μl of 1 M ethanolamine hydrochloride pH 8.5. EDC, NHS and ethanolamine hydrochloride were obtained from Biacore. […] The flow rate was 10 μl min.⁻¹, the injection time was 120″. The running buffer during immobilization was 10 mM HEPES pH 7.4, 140 mM NaCl. Buffers were filtrated on a 0.22 μm filter (white GSWP, 47 mm, Millipore) and degassed at room temperature. For subsequent binding experiments, the running buffer was 10 mM HEPES pH 7.4, 140 mM NaCl, 1.5 mM CaCl₂, 10 mM εACA, 0.005% Tween-20. […] After each injection of protein, the chip was regenerated with 0.1 M H₃PO₄ pH 1.0.
# [2] = molecular target: abciximab (ReoPro); assay: cell-based or functional assay
# [3] = molecular target: T3, recombinant human Zn2+-chelated insulin (Monotard) (human, UniProt P01308 90-110; P01308 25-54); assay: cell-based or functional assay
# [4] = molecular target: T4, rapid acting human insulin analogue (NovoRapid Flexpen) (human, UniProt P01308 90-110; P01308 25-54); assay: cell-based or functional assay
# [5] = molecular target: Etanercept (Enbrel), native; assay: cell-based or functional assay
# [6] = molecular target: Infliximab (Remicade), human-murine chimeric monoclonal antibody; assay: cell-based or functional assay
# [7] = molecular target: T2, human coagulation factor VIII (FVIII) …; assay: ELISA, therapeutic coated on Nunc Immobilizer plate, concentration series of tPA, one-site binding fit
# Description: (§2) Plates were washed twice with Tris buffered saline pH 7.2 containing 0.1% Tween20 (TBST) and blocked with PBS containing 1% Tween20 for 1 hour at room temperature. […] Plates were washed five times with TBST and incubated with peroxidase labeled anti-mouse immunoglobulins (RAMPO; DAKOCytomation, Glostrup, Denmark) diluted 1:3000 in PBST for 30 minutes at room temperature. Plates were washed five times with PBS 0.1% Tween20, and stained with 100 μL/well of tetramethyl-benzidine (TMB) substrate (Biosource Europe, Nivelles, Belgium). The reaction was terminated with 50 μL/well of 2 M H₂SO₄ and substrate conversion was read at 450 nm on a Spectramax340 microplate reader. Curves were fitted with a one-site binding model (GraphPad Prism version 4.02 for Windows, Graphpad Software, Calif., USA) from which Kd and Bmax were determined.
# [8] = molecular target: abciximab (ReoPro); assay: as above
# Description: as §2
# [9] = molecular target: T5, human albumin (Cealb, Sanquin-CLB) (human, UniProt P02768 25-609); assay: as above
# T5 construct: also called CeaIb
# Description: as §2
# [10] = molecular target: T3, recombinant human Zn2+-chelated insulin …; assay: as above
# Description: as §2
# [11] = molecular target: T4, rapid acting human insulin analogue …; assay: as above
# Description: as §2
# [12] = molecular target: T1, recombinant human β2-glycoprotein I …; assay: SPR (Biacore), tPA F immobilized on CM5 chip
# Description: as §1
# abciximab (ReoPro), sequence (VH, as listed by the source, chain 1 of 2): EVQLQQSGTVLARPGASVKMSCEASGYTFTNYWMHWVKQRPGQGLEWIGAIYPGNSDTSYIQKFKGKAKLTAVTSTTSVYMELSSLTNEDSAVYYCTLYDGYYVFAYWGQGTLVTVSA
# abciximab (ReoPro), sequence (VL, as listed by the source, chain 2 of 2): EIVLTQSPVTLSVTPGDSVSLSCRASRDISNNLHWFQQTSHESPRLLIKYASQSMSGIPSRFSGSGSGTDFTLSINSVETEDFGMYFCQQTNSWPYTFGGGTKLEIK
# T3 sequence (P01308 90-110 limits assumed, chain 1 of 2): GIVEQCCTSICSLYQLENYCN
# T3 sequence (P01308 25-54 limits assumed, chain 2 of 2): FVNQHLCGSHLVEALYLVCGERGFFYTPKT
# T4 sequence (P01308 other isoform, or with tags, fused parts or gaps limits assumed, chain 2 of 2): as the sequence (P01308 25-54 limits assumed, chain 2 of 2) above, with P28D counted along it
binder,measurement,setting,value
B1,binding result,[1],no binding (tested: 0-300 nM)
B2,"tPA activation, Max. Activation (%) (tPA-dependent plasminogen activation, % of standardized positive control)",[2],0%
same,"tPA activation, Max. Activation (%) (tPA-dependent plasminogen activation, % of standardized positive control)",[3],17.4%
same,"tPA activation, Max. Activation (%) (tPA-dependent plasminogen activation, % of standardized positive control)",[4],70.9%
same,"tPA activation, Max. Activation (%) (tPA-dependent plasminogen activation, % of standardized positive control)",[5],0%
same,"tPA activation, Max. Activation (%) (tPA-dependent plasminogen activation, % of standardized positive control)",[6],0%
same,Bmax,[7],0.54 OD450 nm
same,Bmax,[8],0.533 OD450 nm
same,Bmax,[9],1.23 OD450 nm
same,Bmax,[10],0.756 OD450 nm
same,Bmax,[11],3.62 OD450 nm
B3,binding result,[12],no binding (tested: 0-300 nM)
